# Source: paper PMC2789664
# Tests used:
# GAPDH C149A = GAPDH C149A (Homo sapiens, UniProt P04406 1-335, C152A); test: EMSA
# GAPDH D32A = GAPDH D32A (Homo sapiens, UniProt P04406 1-335, D35A); test: EMSA
# Sequence of GAPDH D32A (P04406 whole entry D35A): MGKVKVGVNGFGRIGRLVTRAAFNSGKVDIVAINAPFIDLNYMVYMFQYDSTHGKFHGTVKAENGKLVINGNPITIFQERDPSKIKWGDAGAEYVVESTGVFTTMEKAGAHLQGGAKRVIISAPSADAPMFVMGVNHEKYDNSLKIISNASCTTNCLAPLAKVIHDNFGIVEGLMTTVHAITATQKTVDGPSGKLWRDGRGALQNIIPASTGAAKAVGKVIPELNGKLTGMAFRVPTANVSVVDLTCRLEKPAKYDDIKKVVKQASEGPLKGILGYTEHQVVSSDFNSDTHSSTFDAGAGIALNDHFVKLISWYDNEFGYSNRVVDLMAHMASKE
# Sequence of GAPDH C149A (P04406 whole entry C152A): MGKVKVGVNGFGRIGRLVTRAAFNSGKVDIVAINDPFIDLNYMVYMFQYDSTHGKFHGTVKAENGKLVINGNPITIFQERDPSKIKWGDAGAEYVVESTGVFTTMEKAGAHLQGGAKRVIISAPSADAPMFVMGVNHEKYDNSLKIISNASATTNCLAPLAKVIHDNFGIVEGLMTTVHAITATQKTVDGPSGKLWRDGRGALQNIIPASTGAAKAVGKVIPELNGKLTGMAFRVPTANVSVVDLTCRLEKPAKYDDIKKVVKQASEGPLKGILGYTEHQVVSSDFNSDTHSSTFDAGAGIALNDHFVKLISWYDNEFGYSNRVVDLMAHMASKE
binder,measurement,setting,value
AGGGTTAGGGTTAGGGTT (ssDNA) [ss-(AGGGTT)3],binding result,GAPDH C149A,no binding
same,binding result,GAPDH D32A,no binding
